Test results reported in patent publication EP1757701A1.

Tests used:
Y0317-570 Fab [1] = assay: BIAcore; estimated from the observed koff with an assumed kon
Y0317-570 Fab [2] = assay: BIAcore, 1:1 Langmuir model: Herceptin dissociating from Y0317-570 Fab held on immobilized VEGF

- Kd (Y0317-570 Fab [1]): 30 to 300 nM
- dissociation half-life (t1/2) (Y0317-570 Fab [2]): 8.5 min
Substance: 4D5-IgG, also known as Herceptin® (antibody)
